# Assay results from patent US6835378B2, “Method and compositions for inhibiting thrombin-induced coagulation” (The Texas A&M University System University, priority 2001, dated 2004).
# T1: Fg Bβ chain (Homo sapiens, UniProt P02675)
# T1 construct: recognized the mature recombinant Bβ chain (residues 1-462); made in house; host or cells: E. coli
# T1 sequence (P02675 31-491): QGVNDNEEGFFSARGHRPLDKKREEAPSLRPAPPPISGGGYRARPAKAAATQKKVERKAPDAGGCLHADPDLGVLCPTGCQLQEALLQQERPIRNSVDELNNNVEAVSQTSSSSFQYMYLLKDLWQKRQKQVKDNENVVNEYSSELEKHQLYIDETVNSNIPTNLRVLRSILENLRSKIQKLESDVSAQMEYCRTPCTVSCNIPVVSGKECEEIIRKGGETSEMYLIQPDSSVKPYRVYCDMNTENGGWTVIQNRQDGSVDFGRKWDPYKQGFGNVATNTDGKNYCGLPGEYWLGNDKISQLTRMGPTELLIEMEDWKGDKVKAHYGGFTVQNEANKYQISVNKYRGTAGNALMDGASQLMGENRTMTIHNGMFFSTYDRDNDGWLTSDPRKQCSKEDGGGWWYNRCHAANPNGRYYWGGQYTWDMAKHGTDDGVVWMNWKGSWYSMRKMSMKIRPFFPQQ
# B1: rSdrG(50-597): recombinant His-tagged A region (residues 50-597) of SdrG, a fibrinogen-binding MSCRAMM from S. epidermidis (protein)
# chain: HHHHHHAEENTVQDVKDSNMDDELSDSNDQSSNEEKNDVINNSQSINTDDDNQIKKEETNSNDAIENRSKDITQSTTNVDENEATFLQKTPQDNTQLKEEVVKEPSSVESSNSSMDTAQQPSHTTINSEASIQTSDNEENSRVSDFANSKIIESNTESNKEENTIEQPNKVREDSITSQPSSYKNIDEKISNQDELLNLPINEYENKVRPLSTTSAQPSSKRVTVNQLAAEQGSNVNHLIKVTDQSITEGYDDSDGIIKAHDAENLIYDVTFEVDDKVKSGDTMTVNIDKNTVPSDLTDSFAIPKIKDNSGEIIATGTYDNTNKQITYTFTDYVDKYENIKAHLKLTSYIDKSKVPNNNTKLDVEYKTALSSVNKTITVEYQKPNENRTANLQSMFTNIDTKNHTVEQTIYINPLRYSAKETNVNISGNGDEGSTIIDDSTIIKVYKVGDNQNLPDSNRIYDYSEYEDVTNDDYAQLGNNNDVNINFGNIDSPYIIKVISKYDPNKDDYTTIQQTVTMQTTINEYTGEFRTASYDNTIAFSTSSGQGQGDLPPE
# Legend:
# [1] = biological target: Fg Bβ chain peptide β1-25 (Homo sapiens, UniProt P02675); conditions: read-out: KD for interaction with peptide β1-25; 10 nM fluorescein-labeled β1-25, 3 h, room temperature
# Experimental: Fluorescence Polarization—Fluorescence polarization was used to determine the equilibrium dissociation constant (KD) for the interaction of rSdrG(50-597) with peptide β1-25. The peptide was labeled with fluorescein as previously described (18). Increasing concentrations of rSdrG(50-597) in PBS, pH 7.5, were incubated with 10 nM labeled peptide for 3 h in the dark at room temperature. Reactions were allowed to reach equilibrium. Polarization measurements were taken with a Luminescence Spectrometer LS50B (Perkin Elmer) using FL WinLab software (Perkin Elmer). Binding data was analyzed by nonlinear regression used to fit a binding function as defined by the following equation: [formula]
# [2] = biological target: T1, Fg Bβ chain; test: Western ligand blot with biotin labeled rSdrG(50-597); format: binding
# Excerpt: Construction of Fg Bβ Chain Truncates—An E. coli strain harboring plasmid p668 which contains the cDNA for the Fg Bβ chain was kindly provided by Dr. Susan T. Lord (University of North Carolina, Chapel Hill, N.C.). The 1525 bp fragment from p668 was subcloned into the plasmid pQE30 to produce recombinant mature Bβ chain with a N-terminal His-tag. Additional Bβ chain constructs (FIG. 3A) were made by subcloning into either pQE30 or pGEX-KG (Pharmacia) to produce recombinant proteins with a N-terminal His-tag or Glutathione S-transferase (GST) fusion.
# Western Ligand Blot Analysis—Whole E. coli lysates harboring each respective Fg Bβ chain construct were fractionated by SDS-PAGE and the separated proteins were transferred to nitrocellulose membrane with a semi-dry transfer cell (Bio-Rad). The membrane was incubated overnight with 5% (w/v) non-fat dry milk in PBS, pH 7.5 at 4° C. to saturate non-specific binding sites. After blocking, the membrane was washed three times with PBST and then incubated with biotin labeled rSdrG(50-597) (0.5 μM) for 1 h at room temperature. rSdrG(50-597) was biotin labeled using EZ Link-sulfo-NHS-LC biotin (Sigma) according to the manufacturers' instructions. After three more washes with PBST, the blot was incubated with a 1:5000 dilution of streptavidin-AP conjugated for 1 h at room temperature and developed with 5-bromo-4-chloro-3-indolyl phosphate (BCIP) and nitro blue tetrazolium (NBT) (Biorad) in carbonate:bicarbonate buffer (14 mM Na2CO3, 36 mM NaHCO3, 5 mM MgCl2:6H2O, pH 9.8) for ˜15 min at room temperature.
molecule,measurement,setting,value
B1,Kd,[1],140 nM
same,"binding to truncates lacking the N-terminal 25 residues, rβ(25-95) and rβ(25-195)",[2]; 0.5 μM biotin labeled protein,failed to bind
same,"recognition of recombinant Bβ chain (1-462) and truncates 1-341, 1-220, 1-195, 1-95",[2]; 0.5 μM biotin labeled protein,recognized
same,recognition of Fg chains,"[2]; native Fg chains, data not shown","recognized the Bβ chain, but not the Aα or γ chains of Fg"
